Assay results from article doi:10.1101/2021.02.05.429969 (bioRxiv, 2021).
Positions count from the first letter of the chain named. In names and notes the source's numbering stands.

B1: CagFbFP-Q148N (domain or fragment)
chain: MASGMIVTDAGADQPIVFVNRAFSTITGYAPNEVLGRNARFLQGPQTDAATVARLREAIAAARPIQERILNYRKDGQPFWNQLSISPVRDETGNVVAFVGVNTDVTA
B2: CagFbFP-Q148K (domain or fragment)
chain: B1 chain with N102K
B3: CagFbFP-Q148H (domain or fragment)
chain: B1 chain with N102H
B4: CagFbFP-Q148E (domain or fragment)
chain: B1 chain with N102E
B5: CagFbFP-Q148R (domain or fragment)
chain: B1 chain with N102R
B6: CagFbFP-Q148D (domain or fragment)
chain: B1 chain with N102D

Molecular target: the molecule itself
Assay: crystal structure

Row | Protein | binding result
1 | B1 | binds
2 | B2 | binds
3 | B3 | binds
4 | B4 | binds
5 | B5 | binds
6 | B6 | binds
